The source of these data is publication PMC7226468, “Insight into the RssB-Mediated Recognition and Delivery of σ^s to the AAA+ Protease, ClpXP” (Biomolecules, 2020).

Data set [1] concerns the molecule itself. The data set can be described thus: cross-linking; 0.005% (v/v) glutaraldehyde, 35 μg of each protein, 20 mM Hepes-KOH pH 7.5, 140 mM NaCl, 10 mM MgCl2, time course; SDS-PAGE and immunodecoration (anti-His, anti-RssB or anti-σS antisera).
Data set [2] has as its target T1, RssB (residues 1–337), untagged (E. coli, UniProt P0AEV1 1-337).
T1 sequence (looked up): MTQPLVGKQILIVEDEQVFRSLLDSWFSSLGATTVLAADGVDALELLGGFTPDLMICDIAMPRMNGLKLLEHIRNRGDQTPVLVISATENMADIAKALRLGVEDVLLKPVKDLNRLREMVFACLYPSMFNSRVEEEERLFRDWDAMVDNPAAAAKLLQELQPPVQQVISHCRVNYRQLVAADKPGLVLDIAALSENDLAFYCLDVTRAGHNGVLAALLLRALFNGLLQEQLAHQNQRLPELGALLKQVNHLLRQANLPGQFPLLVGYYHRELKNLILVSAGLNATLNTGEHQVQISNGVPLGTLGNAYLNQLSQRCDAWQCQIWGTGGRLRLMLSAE
The data set can be described thus: cell-based or functional assay.

What is called stoichiometry N is the number of molecules, sites or subunits per partner or assembly.

B1: RssBN (residues 1–128), untagged (domain or fragment, E. coli, UniProt P0AEV1 1-128, looked up)
chain: MTQPLVGKQILIVEDEQVFRSLLDSWFSSLGATTVLAADGVDALELLGGFTPDLMICDIAMPRMNGLKLLEHIRNRGDQTPVLVISATENMADIAKALRLGVEDVLLKPVKDLNRLREMVFACLYPSM
notes: RssB, E. coli, N-terminal receiver domain, residues 1-128; also called N-terminal domain of RssB; REC domain; source: Ub-fusion system, purified (IMAC, SEC)
With B1, in data set [1], the “stoichiometry N” value was 2.

B2: RssBC (residues 131–337), untagged (domain or fragment, E. coli, UniProt P0AEV1 131-337, looked up)
chain: SRVEEEERLFRDWDAMVDNPAAAAKLLQELQPPVQQVISHCRVNYRQLVAADKPGLVLDIAALSENDLAFYCLDVTRAGHNGVLAALLLRALFNGLLQEQLAHQNQRLPELGALLKQVNHLLRQANLPGQFPLLVGYYHRELKNLILVSAGLNATLNTGEHQVQISNGVPLGTLGNAYLNQLSQRCDAWQCQIWGTGGRLRLMLSAE
notes: RssB, E. coli, C-terminal effector domain, residues 131-337; also called C-terminal domain of RssB; effector domain; source: Ub-fusion system, purified (IMAC, SEC)
On to B2, for which the “stoichiometry N” value in data set [1] is 2.

B3: His6-tagged zinc binding domain (ZBD) of E. coli ClpX (domain or fragment, UniProt P0A6H1 1-60, looked up)
chain: MTDKRKDGSGKLLYCSFCGKSQHEVRKLIAGPSVYICDECVDLCNDIIREEIKEVAPHRE
notes: Dimer by glutaraldehyde cross-linking; also called ClpXZBD; ecClpXZBD; source: purified ("Pure ecClpXZBD")
In the case of B3, the “stoichiometry N” value in data set [1] is 2. Besides, the “half-life of σS in RssB-mediated turnover by 1.2 µM ClpXP with 2, 5 and 15 µM SspB added (from ~2.5 min without SspB)” value in data set [2] was ~23 min.
